Five substances from patent publication US20260209317A1 can be followed below.

The target of test [1] is SARS-CoV-2 WA-1 S-2P spike protein (SARS-CoV-2) (UniProt P0DTC2).
Test [2] deals with SARS-CoV-2 Omicron BA.4.6 spike protein (on pseudotyped lentivirus) (SARS-CoV-2).
The target in test [3] is SARS-CoV-2 Omicron BA.2.75.2 spike protein (on pseudotyped lentivirus) (SARS-CoV-2).
In test [4] the target is SARS-CoV-2 Omicron XBB spike protein (on pseudotyped lentivirus) (SARS-CoV-2) (UniProt P0DTC2).
Test [5] has as its target SARS-CoV-2 Omicron BQ.1.1 spike protein (on pseudotyped lentivirus) (SARS-CoV-2) (UniProt P0DTC2).
Test [6] deals with SARS-CoV-2 Omicron BA.1 spike protein (on pseudotyped lentivirus) (SARS-CoV-2) (UniProt P0DTC2).
Test [7] concerns the target SARS-CoV-2 Omicron BA.2.12.1 spike protein (on pseudotyped lentivirus) (SARS-CoV-2) (UniProt P0DTC2).
Test [8] addresses SARS-CoV-2 Omicron BA.2.75 spike protein (on pseudotyped lentivirus) (SARS-CoV-2) (UniProt P0DTC2).
The target of test [9] is SARS-CoV-2 Omicron BA.4/BA.5 spike protein (on pseudotyped lentivirus) (SARS-CoV-2) (UniProt P0DTC2).
Test [10] concerns the target SARS-CoV-2 Omicron BJ.1 spike protein (on pseudotyped lentivirus) (SARS-CoV-2) (UniProt P0DTC2).
For test [11], the target named is SARS-CoV-2 Omicron BA.4.6 spike protein (on pseudotyped lentivirus) (SARS-CoV-2). The source holds these as a separate data set.
Test [12] addresses SARS-CoV-2 Omicron BA.4/BA.5 spike protein (on pseudotyped lentivirus) (SARS-CoV-2) (UniProt P0DTC2). The source holds these as a separate data set.

Read-outs that look alike come from different tables or passages of the source. Bounds are passed on as bounds.

Take BD55-5514 (antibody): the % inhibition of ACE2 binding in test [1] came out at 99%.

Consider CB6 (antibody), for which the % inhibition of ACE2 binding in test [1] came out at 93%.

As to DH1047 (antibody), the % inhibition of ACE2 binding in [1] was 113%.

With LY-CoV1404 (antibody), the neutralization IC50 was 0.4 ng/mL in [2]; 1 ng/mL in test [3]; greater than 10000 ng/mL in [4]; greater than 10000 ng/mL in [5]; 2 ng/mL in [6]; 1 ng/mL in [7]. Further, the neutralization IC50 in test [8] is 3 ng/mL; in [9], 1.4 ng/mL; in [10], greater than 10000 ng/mL; in test [12], 1 ng/mL. Further, the neutralization IC80 was 1 ng/mL in test [2]; 5 ng/mL in [3]; greater than 10000 ng/mL in test [4]; greater than 10000 ng/mL in test [5]; 5 ng/mL in test [6]; 4 ng/mL in test [7]. In addition, the neutralization IC80 in test [8] was 15 ng/mL; in [9], 3 ng/mL; in test [10], greater than 10000 ng/mL; in test [11] it was 1.4 ng/mL. Also, in test [1], the % inhibition of ACE2 binding turned out to be 99%.

Turning to S2H97 (antibody), the % inhibition of ACE2 binding in test [1] was -3%.
